Measurements from US20260216242A1 (ALMAC DISCOVERY, published 2026).
Numbering of substitutions follows the chain as printed. Names and notes keep the numbering of the source. One block for each binder: values may come before it.

Key:
[1] = biological target: T1, human ALPPL2 (alkaline phosphatase, germ cell type) expressed on the surface of CHO cells (human, UniProt P10696 20-503); assay: cell-based or functional assay
[2] = biological target: T2, human ALPI (intestinal alkaline phosphatase) expressed on the surface of CHO cells (human, UniProt P09923 20-503); assay: cell-based or functional assay
T2 sequence (looked up): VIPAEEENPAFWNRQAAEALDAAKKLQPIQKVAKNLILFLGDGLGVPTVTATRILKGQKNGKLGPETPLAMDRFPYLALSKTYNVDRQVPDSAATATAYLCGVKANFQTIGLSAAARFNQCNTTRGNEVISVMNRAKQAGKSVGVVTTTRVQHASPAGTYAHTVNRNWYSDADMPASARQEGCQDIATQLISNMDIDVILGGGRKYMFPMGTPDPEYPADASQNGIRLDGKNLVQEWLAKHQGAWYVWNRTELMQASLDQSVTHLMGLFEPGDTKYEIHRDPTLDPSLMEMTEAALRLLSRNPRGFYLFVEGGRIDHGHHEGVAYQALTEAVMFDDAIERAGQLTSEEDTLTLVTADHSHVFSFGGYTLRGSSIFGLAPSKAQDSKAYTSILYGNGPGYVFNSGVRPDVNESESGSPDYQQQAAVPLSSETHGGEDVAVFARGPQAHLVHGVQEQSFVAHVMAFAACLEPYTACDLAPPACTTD

[3] = biological target: T3, human ALPL (tissue non-specific alkaline phosphatase) expressed on the surface of CHO cells (human, UniProt P05186 18-501); assay: cell-based or functional assay
T3 sequence (looked up): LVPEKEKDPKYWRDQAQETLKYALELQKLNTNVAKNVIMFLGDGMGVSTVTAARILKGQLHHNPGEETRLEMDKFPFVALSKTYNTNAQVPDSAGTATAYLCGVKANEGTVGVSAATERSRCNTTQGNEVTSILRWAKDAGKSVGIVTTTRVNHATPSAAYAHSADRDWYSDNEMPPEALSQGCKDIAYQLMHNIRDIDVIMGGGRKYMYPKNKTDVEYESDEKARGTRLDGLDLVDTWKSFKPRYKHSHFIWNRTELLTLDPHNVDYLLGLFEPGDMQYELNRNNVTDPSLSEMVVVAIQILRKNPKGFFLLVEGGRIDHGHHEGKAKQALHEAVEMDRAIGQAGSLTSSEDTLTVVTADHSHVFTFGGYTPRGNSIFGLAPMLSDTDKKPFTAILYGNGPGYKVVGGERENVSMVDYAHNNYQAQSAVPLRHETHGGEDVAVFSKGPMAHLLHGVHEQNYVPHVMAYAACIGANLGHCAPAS

[4] = biological target: T3, human ALPL (tissue non-specific …); assay: flow cytometry, CHO-ALPL cells
[5] = biological target: T2, human ALPI (intestinal alkaline …); assay: flow cytometry on CHO-ALPI cells
[6] = biological target: T4, human ALPP (alkaline phosphatase, placental type) expressed on the surface of CHO cells (human, UniProt P05187 23-506); assay: flow cytometry on CHO-ALPP cells, apparent KD (KDapp)
T4 construct: also called CHO-ALPP; hALPP
Procedure: (§1) Biparatopic VHH-hFc drug conjugates were assessed for human ALPP, ALPPL2, ALPI and ALPL cell-surface binding by flow cytometry. Binders were screened on CHO cells stably expressing human ALPP, ALPPL2, ALPI or ALPL.
(§2) Cell surface binding of test agents to hALPP isoforms was characterized in four CHO-ALPP isoform transfectant cell lines (CHO-ALPP, CHO-ALPPL2, CHO-ALPI and CHO-ALPL) and the resulting KDapp values determined. Adherent cells were detached from tissue culture flasks by incubating with 0.1% EDTA/PBS solution at 37° C. for […] or until cells detached easily. Cells were re-suspended in ice-cold PBS/2% FCS in 15 ml tubes and centrifuged at 1700 rpm for 5 mins at 4° C. Supernatant was removed and the cell pellet re-suspended in PBS/2% FCS. […] Cells were incubated with 100 μl of test agents at a range of concentrations, plus controls for 1 hr on ice. The sample plate was centrifuged at 1700 rpm for 5 mins at 4° C. The supernatant was removed, and a wash performed by re-suspending the cell pellets in 0.25 mL of ice-cold PBS/2% FCS using a multichannel pipette. Samples were again centrifuged at 1700 rpm for 5 min at 4° C. Supernatant was removed and two further washes performed as described. After the final wash and centrifugation step, excess liquid was removed by blotting the plate on tissue paper. Binding of VHH-hFc agents was determined by adding 100 μl of Fitc-anti-human Ab (ThermoFisher) and incubating for 30 mins on ice in the dark. Wash steps were performed as described previously. All cell pellets were finally re-suspended in 0.28 ml of ice-cold PBS/2% FCS and left on ice in the dark prior to analysis on a Merck-Millipore Guava EasyCyte HT or Thermo Fisher Attune N×T flow cytometer.

[7] = biological target: T1, human ALPPL2 (alkaline phosphatase, …); assay: flow cytometry on CHO-ALPPL2 cells, apparent KD (KDapp)
Procedure: as §1, §2

T1 sequence (P10696 20-503): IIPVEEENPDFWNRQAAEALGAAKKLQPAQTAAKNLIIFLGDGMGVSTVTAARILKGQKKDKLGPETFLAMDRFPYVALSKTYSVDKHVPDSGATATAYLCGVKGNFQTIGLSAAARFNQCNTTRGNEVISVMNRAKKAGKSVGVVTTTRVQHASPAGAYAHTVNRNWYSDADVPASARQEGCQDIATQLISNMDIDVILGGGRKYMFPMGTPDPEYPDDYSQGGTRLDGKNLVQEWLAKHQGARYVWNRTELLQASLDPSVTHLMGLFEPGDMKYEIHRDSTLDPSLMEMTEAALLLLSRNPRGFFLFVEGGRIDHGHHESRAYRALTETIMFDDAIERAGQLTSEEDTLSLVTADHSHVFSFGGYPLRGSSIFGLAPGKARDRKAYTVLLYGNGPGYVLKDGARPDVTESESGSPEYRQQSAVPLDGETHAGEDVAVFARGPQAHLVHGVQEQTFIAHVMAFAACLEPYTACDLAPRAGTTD

- MFI on CHO-ALPI cells at 350 nM as percent of MFI on CHO-ALPP cells (KDapp not-determinable) [5]: ≤ 1%
- Kd [6]: 0.011 µM
- Kd [7]: 0.0056 µM
B1: A06 E06-hFc (S239/442C T366Y/Y407T), [G4S]1 linker, MC-vc-PAB-MMAE conjugate, #710 (Fc fusion, DAR 4)
chain 1: QVHLVESGGGLVQAGGSLRLSCAASGRTFLSMGWFRQAPGKEREFVAAISWTGGSTGYADSVKGRFTISRESDKETMYLQMNSLKPEDTAVYYCAARGDVYYGGDDATRYKYWGQGTQVTVSSGGGGSEPKSSDKTHTCPPCPAPELLGGPCVFLFPPKPKDTLMISRTPEVTCVVVDVSHEDPEVKFNWYVDGVEVHNAKTKPREEQYNSTYRVVSVLTVLHQDWLNGKEYKCKVSNKALPAPIEKTISKAKGQPREPQVYTLPPSRDELTKNQVSLYCLVKGFYPSDIAVEWESNGQPENNYKTTPPVLDSDGSFFLYSKLTVDKSRWQQGNVFSCSVMHEALHNHYTQKSLCLSPGK
chain 2: QVHLVESGGGLVQAGGSLRLSCAASRRSFSEYAMGWFRQAPGKEREFVAAIGWSGVIEYADSVKGRFTISRDNAKDTVYLQMNSLKPEDTAVYYCAAGLGIRVVSQTPAYWGQGTQVTVSSGGGGSEPKSSDKTHTCPPCPAPELLGGPCVFLFPPKPKDTLMISRTPEVTCVVVDVSHEDPEVKFNWYVDGVEVHNAKTKPREEQYNSTYRVVSVLTVLHQDWLNGKEYKCKVSNKALPAPIEKTISKAKGQPREPQVYTLPPSRDELTKNQVSLTCLVKGFYPSDIAVEWESNGQPENNYKTTPPVLDSDGSFFLTSKLTVDKSRWQQGNVFSCSVMHEALHNHYTQKSLCLSPGK
modifications: MC-vc-PAB-MMAE on Cys of S239C and S442C (EU numbering)
notes: Biparatopic knob-into-hole VHH-hFc heterodimer, DAR 4; The assignment of T366Y to the first named VHH and Y407T to the second follows the order of the name; No paragraph spells out this pair; also called A06-E06-hFc-vcPAB-MMAE; A06-E06 hFc-vc-MMAE
- IC50 at 96 h, cell-killing of CHO-ALPPL2 cells [1]: 0.0181 µM
- IC50 at 96 h, cell-killing of CHO-ALPI cells (estimated from data extrapolation) [2]: ~0.846 µM
- IC50 at 96 h, cell-killing of CHO-ALPL cells (estimated from data extrapolation) [3]: ~0.699 µM
- binding result [4]: no binding (tested: 350 nM (highest concentration))

- MFI on CHO-ALPI cells at 350 nM as percent of MFI on CHO-ALPP cells (KDapp not-determinable) [5]: ≤ 1%
- Kd [6]: 0.0134 µM
- Kd [7]: 0.0076 µM
B2: A06 E10-hFc (S239/442C T366Y/Y407T), [G4S]1 linker, MC-vc-PAB-MMAE conjugate, #711 (Fc fusion, DAR 4)
chain 1: B1 chain 1
chain 2: QVQLVESGGGLVQAGGSLRLSCAVSGRALSDYNIGWFRQAPGKEREFVARKTWDGSSTRYDDSVKGRFTVSIEDAKNTAYLQMSSLKTEDTAVYYCAAGRYSRARGWEYDYWGQGTQVTVSSGGGGSEPKSSDKTHTCPPCPAPELLGGPCVFLFPPKPKDTLMISRTPEVTCVVVDVSHEDPEVKFNWYVDGVEVHNAKTKPREEQYNSTYRVVSVLTVLHQDWLNGKEYKCKVSNKALPAPIEKTISKAKGQPREPQVYTLPPSRDELTKNQVSLTCLVKGFYPSDIAVEWESNGQPENNYKTTPPVLDSDGSFFLTSKLTVDKSRWQQGNVFSCSVMHEALHNHYTQKSLCLSPGK
modifications: MC-vc-PAB-MMAE on Cys of S239C and S442C (EU numbering)
notes: Biparatopic knob-into-hole VHH-hFc heterodimer, DAR 4; The assignment of T366Y to the first named VHH and Y407T to the second follows the order of the name; No paragraph spells out this pair; also called A06-E10-hFc-vcPAB-MMAE; A06-E10 hFc-vc-MMAE
- IC50 at 96 h, cell-killing of CHO-ALPPL2 cells [1]: 0.0141 µM
- IC50 at 96 h, cell-killing of CHO-ALPI cells (estimated from data extrapolation) [2]: ~0.673 µM
- IC50 at 96 h, cell-killing of CHO-ALPL cells (estimated from data extrapolation) [3]: ~0.597 µM
- binding result [4]: no binding (tested: 350 nM (highest concentration))

- MFI on CHO-ALPI cells at 350 nM as percent of MFI on CHO-ALPP cells (KDapp not-determinable) [5]: ≤ 1%
- Kd [6]: 0.0106 µM
- Kd [7]: 0.0057 µM
B3: A06 F05-hFc (S239/442C T366Y/Y407T), [G4S]1 linker, MC-vc-PAB-MMAE conjugate, #712 (Fc fusion, DAR 4)
chain 1: B1 chain 1
chain 2: B2 chain 2 with V24A, L29F, S30G, K51R, E73D, D74N, S84N, A104V
modifications: MC-vc-PAB-MMAE on Cys of S239C and S442C (EU numbering)
notes: also called A06-F05-hFc-vcPAB-MMAE; A06-F05 hFc-vc-MMAE
- IC50 at 96 h, cell-killing of CHO-ALPPL2 cells [1]: 0.0148 µM
- IC50 at 96 h, cell-killing of CHO-ALPI cells (estimated from data extrapolation) [2]: ~0.776 µM
- IC50 at 96 h, cell-killing of CHO-ALPL cells (estimated from data extrapolation) [3]: ~0.551 µM
- binding result [4]: no binding (tested: 350 nM (highest concentration))
